Eleven molecules from article PMC6101547 (Nucleic Acids Research, 2018) can be followed below.

Series [1] has as its target T1, Rim1 (mitochondrial SSB) (Saccharomyces cerevisiae, UniProt P32445 17-135).
T1 sequence: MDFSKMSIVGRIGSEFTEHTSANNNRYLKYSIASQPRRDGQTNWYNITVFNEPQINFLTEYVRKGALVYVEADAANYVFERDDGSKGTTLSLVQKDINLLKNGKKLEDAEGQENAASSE
Put plainly: Cy3 fluorescence titration.

Series [2] deals with T2, Rim1 Y85H (Saccharomyces cerevisiae, UniProt P32445 17-135, Y85H).
T2 sequence: T1 sequence with Y69H
Put plainly: sedimentation equilibrium.

Series [3] addresses T1, Rim1 (mitochondrial SSB). Put plainly: FRET titration.
In series [4] the target is T1, Rim1 (mitochondrial SSB). Nature of the series: Cy3 fluorescence titration. This is another data set of the same source.
Series [5] concerns the molecule itself. Nature of the series: AUC.
Series [6] concerns the molecule itself. Put plainly: AUC. This is another data set of the same source.
For series [7], the target named is T1, Rim1 (mitochondrial SSB). Nature of the series: FRET titration. The source holds these as a separate data set.
Series [8] addresses T1, Rim1 (mitochondrial SSB). Put plainly: sedimentation equilibrium.
Series [9] deals with T1, Rim1 (mitochondrial SSB). Nature of the series: FRET titration. This is another data set of the same source.
Series [10] has as its target T1, Rim1 (mitochondrial SSB). Put plainly: Cy3 fluorescence titration. This is another data set of the same source.
Series [11] deals with the molecule itself. Put plainly: AUC. This is another data set of the same source.
Series [12] concerns the target T1, Rim1 (mitochondrial SSB). Nature of the series: Cy3 fluorescence titration. The source holds these as a separate data set.

Changes are numbered by the printed parent chain. Names may count otherwise. Like-named read-outs stand apart in the source and are kept apart here.

B1: dT38-Cy3-T (ssDNA)
DNA: TTTTTTTTTTTTTTTTTTTTTTTTTTTTTTTTTTTTTTT
modifications: internal Cy3 before last T
On to B1, for which, in series [1], the binding result is recorded as “binds”.

B2: Cy3-labeled dT20 (AUC) (ssDNA)
DNA: TTTTTTTTTTTTTTTTTTTT
In the case of B2, the binding result in series [2] was “binds”.

B3: Cy5.5-dT40-Cy3-T (ssDNA)
DNA: TTTTTTTTTTTTTTTTTTTTTTTTTTTTTTTTTTTTTTTTT
modifications: internal Cy3 before last T
B3: in [3], the binding result is “binds”.

B4: dT28-Cy3-T (ssDNA)
DNA: TTTTTTTTTTTTTTTTTTTTTTTTTTTTT
modifications: internal Cy3 before last T
As for B4, in [4], the binding result was “binds”.

B5: Rim1 harboring the mutation Y85H (amino acids 17-135) (natural protein, S. cerevisiae, UniProt P32445 17-135, looked up)
chain: T1 sequence with Y69H
Take B5: the entries for the “stoichiometry N” value in series [5] and in series [6] were 2 and 4, respectively.

B6: Cy5-dT68-Cy3-T (ssDNA)
DNA: TTTTTTTTTTTTTTTTTTTTTTTTTTTTTTTTTTTTTTTTTTTTTTTTTTTTTTTTTTTTTTTTTTTTT
modifications: internal Cy3 before last T
As to B6, in series [7], the binding result is “binds”.

B7: Cy3-labeled dT15 (AUC) (ssDNA)
DNA: TTTTTTTTTTTTTTT
For the molecule B7, the binding result in series [2] and in series [8] was “binds” throughout.

B8: Cy5.5-dT45-Cy3-T (ssDNA)
DNA: TTTTTTTTTTTTTTTTTTTTTTTTTTTTTTTTTTTTTTTTTTTTTT
modifications: internal Cy3 before last T
Regarding B8, the binding result in series [9] is listed as “binds”.

B9: dT15-Cy3-T (ssDNA)
DNA: TTTTTTTTTTTTTTTT
modifications: internal Cy3 before last T
Turning to B9, in series [10], the binding result is “binds”.

B10: Human mitochondrial SSB, mitochondrial form (amino acids 17-148) (natural protein, UniProt Q04837 17-148, looked up)
chain: ESETTTSLVLERSLNRVHLLGRVGQDPVLRQVEGKNPVTIFSLATNEMWRSGDSEVYQLGDVSQKTTWHRISVFRPGLRDVAYQYVKKGSRIYLEGKIDYGEYMDKNNVRRQATTIIADNIIFLSDQTKEKE
With B10, in series [11], the binding result is listed as “binds”.

B11: dT20-Cy3-T (ssDNA)
DNA: TTTTTTTTTTTTTTTTTTTTT
modifications: internal Cy3 before last T
Consider B11, for which, in [12], the binding result is “binds”.

Broadly, the stoichiometry N is a count of units in the complex or per binding partner.
